According to US20210363262A1 (AIMED BIO, published 2021):

Target: c-Met on cancer cell lines (Caki-1 renal cell carcinoma; MKN45 c-Met-amplified gastric cancer) (UniProt P08581)
Assay: cell-based or functional assay

Chain of c-Met on cancer cell lines (Caki-1 renal cell carcinoma; MKN45 c-Met-amplified gastric cancer) (UniProt P08581) (P08581 25-1390): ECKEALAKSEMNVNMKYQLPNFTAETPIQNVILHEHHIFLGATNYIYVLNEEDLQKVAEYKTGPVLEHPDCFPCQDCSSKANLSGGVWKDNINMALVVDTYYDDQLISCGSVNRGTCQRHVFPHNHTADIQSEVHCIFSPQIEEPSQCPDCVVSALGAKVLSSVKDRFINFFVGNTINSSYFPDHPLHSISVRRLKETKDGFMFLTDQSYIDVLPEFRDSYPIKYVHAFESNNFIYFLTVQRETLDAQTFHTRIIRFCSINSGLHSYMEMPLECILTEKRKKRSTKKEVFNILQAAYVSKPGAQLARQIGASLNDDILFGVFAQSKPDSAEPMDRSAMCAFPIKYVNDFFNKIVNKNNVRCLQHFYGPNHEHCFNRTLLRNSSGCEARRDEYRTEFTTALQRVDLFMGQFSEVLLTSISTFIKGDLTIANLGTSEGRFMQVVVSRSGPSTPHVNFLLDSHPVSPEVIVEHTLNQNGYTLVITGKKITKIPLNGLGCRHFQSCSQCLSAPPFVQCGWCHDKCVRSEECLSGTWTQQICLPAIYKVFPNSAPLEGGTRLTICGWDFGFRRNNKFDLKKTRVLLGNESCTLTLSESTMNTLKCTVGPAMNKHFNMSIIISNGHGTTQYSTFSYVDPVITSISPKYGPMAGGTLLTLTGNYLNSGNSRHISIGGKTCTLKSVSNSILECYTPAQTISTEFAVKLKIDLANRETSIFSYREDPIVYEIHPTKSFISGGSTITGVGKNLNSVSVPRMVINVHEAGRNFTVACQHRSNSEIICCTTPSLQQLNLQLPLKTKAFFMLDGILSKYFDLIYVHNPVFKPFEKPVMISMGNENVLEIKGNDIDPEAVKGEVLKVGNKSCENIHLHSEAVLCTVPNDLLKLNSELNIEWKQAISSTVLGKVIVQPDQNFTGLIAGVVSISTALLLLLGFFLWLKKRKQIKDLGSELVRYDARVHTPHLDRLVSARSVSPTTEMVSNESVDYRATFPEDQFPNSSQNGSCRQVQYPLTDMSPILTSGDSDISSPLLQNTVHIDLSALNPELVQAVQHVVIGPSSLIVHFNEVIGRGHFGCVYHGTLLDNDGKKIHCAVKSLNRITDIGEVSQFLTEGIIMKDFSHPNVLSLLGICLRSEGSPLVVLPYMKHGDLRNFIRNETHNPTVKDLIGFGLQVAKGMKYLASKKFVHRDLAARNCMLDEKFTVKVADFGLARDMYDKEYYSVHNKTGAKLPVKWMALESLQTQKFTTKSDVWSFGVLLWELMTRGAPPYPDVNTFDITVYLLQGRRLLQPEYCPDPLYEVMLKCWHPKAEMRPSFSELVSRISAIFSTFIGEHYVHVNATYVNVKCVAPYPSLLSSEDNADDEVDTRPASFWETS

Molecule | agonist activity: Akt phosphorylation in Caki-1 cells, Mean (%) (PBS = 0%, HGF/SF = 100%)
5D5, c-Met agonist antibody | 86
Onartuzumab (OA-5D5; monovalent c-Met antibody, Genentech) | 30.5
c-Met ligand HGF/SF (R&D systems) (from UniProt P14210 32-728) | 100

Target: c-Met on cancer cell lines (Caki-1 renal cell carcinoma; MKN45 c-Met-amplified gastric cancer) (UniProt P08581 25-1390)
Assay: cell-based or functional assay

Chain of c-Met on cancer cell lines (Caki-1 renal cell carcinoma; MKN45 c-Met-amplified gastric cancer) (UniProt P08581 25-1390) (P08581 25-1390): as above

Molecule | agonist activity: Akt phosphorylation in Caki-1 cells, Mean (%) (PBS = 0%, HGF/SF = 100%)
1F12 (parent antibody), full-length human IgG1 (antibody, V domains shown) VH: EVQLLESGGGLVQPGGSLRLSCAASGFTFSNYAMSWVRQAPGKGLEWVSGISYSGGSTYYADSVKGRFTISRDNSKNTLYLQMNSLRAEDTAVYYCAKASRSCQRPACSYANGMDVWGQGTLVTVSS VL: QSVLTQPPSASGTPGQRVTISCTGSSSNIGNNYVTWYQQLPGTAPKLLIYYNNHRPSGVPDRFSGSKSGTSASLAISGLQSEDEADYYCGSWDYSLSAYVFGGGTKLTVL | 18.2
1F12_H57K, full-length human IgG1 (antibody, V domains shown) VH: EVQLLESGGGLVQPGGSLRLSCAASGFTFSNYAMSWVRQAPGKGLEWVSGISYSGGSKYYADSVKGRFTISRDNSKNTLYLQMNSLRAEDTAVYYCAKASRSCQRPACSYANGMDVWGQGTLVTVSS VL: QSVLTQPPSASGTPGQRVTISCTGSSSNIGNNYVTWYQQLPGTAPKLLIYYNNHRPSGVPDRFSGSKSGTSASLAISGLQSEDEADYYCGSWDYSLSAYVFGGGTKLTVL | 26.8
1F12_L96D, full-length human IgG1 (antibody, V domains shown) VH: EVQLLESGGGLVQPGGSLRLSCAASGFTFSNYAMSWVRQAPGKGLEWVSGISYSGGSTYYADSVKGRFTISRDNSKNTLYLQMNSLRAEDTAVYYCAKASRSCQRPACSYANGMDVWGQGTLVTVSS VL: QSVLTQPPSASGTPGQRVTISCTGSSSNIGNNYVTWYQQLPGTAPKLLIYYNNHRPSGVPDRFSGSKSGTSASLAISGLQSEDEADYYCGSWDYSLSADVFGGGTKLTVL | 21.2
1F12_H35H, full-length human IgG1 (antibody, V domains shown) VH: EVQLLESGGGLVQPGGSLRLSCAASGFTFSNYAMHWVRQAPGKGLEWVSGISYSGGSTYYADSVKGRFTISRDNSKNTLYLQMNSLRAEDTAVYYCAKASRSCQRPACSYANGMDVWGQGTLVTVSS VL: QSVLTQPPSASGTPGQRVTISCTGSSSNIGNNYVTWYQQLPGTAPKLLIYYNNHRPSGVPDRFSGSKSGTSASLAISGLQSEDEADYYCGSWDYSLSAYVFGGGTKLTVL | 17.3
1F12_H60N, full-length human IgG1 (antibody, V domains shown) VH: EVQLLESGGGLVQPGGSLRLSCAASGFTFSNYAMSWVRQAPGKGLEWVSGISYSGGSTYYNDSVKGRFTISRDNSKNTLYLQMNSLRAEDTAVYYCAKASRSCQRPACSYANGMDVWGQGTLVTVSS VL: QSVLTQPPSASGTPGQRVTISCTGSSSNIGNNYVTWYQQLPGTAPKLLIYYNNHRPSGVPDRFSGSKSGTSASLAISGLQSEDEADYYCGSWDYSLSAYVFGGGTKLTVL | 27.7
1F12_L51D, full-length human IgG1 (antibody, V domains shown) VH: EVQLLESGGGLVQPGGSLRLSCAASGFTFSNYAMSWVRQAPGKGLEWVSGISYSGGSTYYADSVKGRFTISRDNSKNTLYLQMNSLRAEDTAVYYCAKASRSCQRPACSYANGMDVWGQGTLVTVSS VL: QSVLTQPPSASGTPGQRVTISCTGSSSNIGNNYVTWYQQLPGTAPKLLIYYDNHRPSGVPDRFSGSKSGTSASLAISGLQSEDEADYYCGSWDYSLSAYVFGGGTKLTVL | 42.5
1F12_H100eH, full-length human IgG1 (antibody, V domains shown) VH: EVQLLESGGGLVQPGGSLRLSCAASGFTFSNYAMSWVRQAPGKGLEWVSGISYSGGSTYYADSVKGRFTISRDNSKNTLYLQMNSLRAEDTAVYYCAKASRSCQRPACHYANGMDVWGQGTLVTVSS VL: QSVLTQPPSASGTPGQRVTISCTGSSSNIGNNYVTWYQQLPGTAPKLLIYYNNHRPSGVPDRFSGSKSGTSASLAISGLQSEDEADYYCGSWDYSLSAYVFGGGTKLTVL | 27.5
1F12_L95aR, full-length human IgG1 (antibody, V domains shown) VH: EVQLLESGGGLVQPGGSLRLSCAASGFTFSNYAMSWVRQAPGKGLEWVSGISYSGGSTYYADSVKGRFTISRDNSKNTLYLQMNSLRAEDTAVYYCAKASRSCQRPACSYANGMDVWGQGTLVTVSS VL: QSVLTQPPSASGTPGQRVTISCTGSSSNIGNNYVTWYQQLPGTAPKLLIYYNNHRPSGVPDRFSGSKSGTSASLAISGLQSEDEADYYCGSWDYSLRAYVFGGGTKLTVL | 29.5
1F12_L26D, full-length human IgG1 (antibody, V domains shown) VH: EVQLLESGGGLVQPGGSLRLSCAASGFTFSNYAMSWVRQAPGKGLEWVSGISYSGGSTYYADSVKGRFTISRDNSKNTLYLQMNSLRAEDTAVYYCAKASRSCQRPACSYANGMDVWGQGTLVTVSS VL: QSVLTQPPSASGTPGQRVTISCTGDSSNIGNNYVTWYQQLPGTAPKLLIYYNNHRPSGVPDRFSGSKSGTSASLAISGLQSEDEADYYCGSWDYSLSAYVFGGGTKLTVL | 38.1
1F12_L50E, full-length human IgG1 (antibody, V domains shown) VH: EVQLLESGGGLVQPGGSLRLSCAASGFTFSNYAMSWVRQAPGKGLEWVSGISYSGGSTYYADSVKGRFTISRDNSKNTLYLQMNSLRAEDTAVYYCAKASRSCQRPACSYANGMDVWGQGTLVTVSS VL: QSVLTQPPSASGTPGQRVTISCTGSSSNIGNNYVTWYQQLPGTAPKLLIYENNHRPSGVPDRFSGSKSGTSASLAISGLQSEDEADYYCGSWDYSLSAYVFGGGTKLTVL | 37.2
1F12_H53D, full-length human IgG1 (antibody, V domains shown) VH: EVQLLESGGGLVQPGGSLRLSCAASGFTFSNYAMSWVRQAPGKGLEWVSGISYDGGSTYYADSVKGRFTISRDNSKNTLYLQMNSLRAEDTAVYYCAKASRSCQRPACSYANGMDVWGQGTLVTVSS VL: QSVLTQPPSASGTPGQRVTISCTGSSSNIGNNYVTWYQQLPGTAPKLLIYYNNHRPSGVPDRFSGSKSGTSASLAISGLQSEDEADYYCGSWDYSLSAYVFGGGTKLTVL | 24.5
1F12_L27bD, full-length human IgG1 (antibody, V domains shown) VH: EVQLLESGGGLVQPGGSLRLSCAASGFTFSNYAMSWVRQAPGKGLEWVSGISYSGGSTYYADSVKGRFTISRDNSKNTLYLQMNSLRAEDTAVYYCAKASRSCQRPACSYANGMDVWGQGTLVTVSS VL: QSVLTQPPSASGTPGQRVTISCTGSSSDIGNNYVTWYQQLPGTAPKLLIYYNNHRPSGVPDRFSGSKSGTSASLAISGLQSEDEADYYCGSWDYSLSAYVFGGGTKLTVL | 30.3
1F12_H58D, full-length human IgG1 (antibody, V domains shown) VH: EVQLLESGGGLVQPGGSLRLSCAASGFTFSNYAMSWVRQAPGKGLEWVSGISYSGGSTDYADSVKGRFTISRDNSKNTLYLQMNSLRAEDTAVYYCAKASRSCQRPACSYANGMDVWGQGTLVTVSS VL: QSVLTQPPSASGTPGQRVTISCTGSSSNIGNNYVTWYQQLPGTAPKLLIYYNNHRPSGVPDRFSGSKSGTSASLAISGLQSEDEADYYCGSWDYSLSAYVFGGGTKLTVL | 21.5
1F12_H3L5, full-length human IgG1 (antibody, V domains shown) VH: EVQLLESGGGLVQPGGSLRLSCAASGFTFSNYAMSWVRQAPGKGLEWVSGISYSGGSKYYADSVKGRFTISRDNSKNTLYLQMNSLRAEDTAVYYCAKASRSCQRPACSYANGMDVWGQGTLVTVSS VL: QSVLTQPPSASGTPGQRVTISCTGSSSNIGNNYVTWYQQLPGTAPKLLIYYNNHRPSGVPDRFSGSKSGTSASLAISGLQSEDEADYYCGSWDYSLRAYVFGGGTKLTVL | 18.9
1F12_H2L6, full-length human IgG1 (antibody, V domains shown) VH: EVQLLESGGGLVQPGGSLRLSCAASGFTFSNYAMSWVRQAPGKGLEWVSGISYDGGSTYYADSVKGRFTISRDNSKNTLYLQMNSLRAEDTAVYYCAKASRSCQRPACSYANGMDVWGQGTLVTVSS VL: QSVLTQPPSASGTPGQRVTISCTGSSSNIGNNYVTWYQQLPGTAPKLLIYYNNHRPSGVPDRFSGSKSGTSASLAISGLQSEDEADYYCGSWDYSLSADVFGGGTKLTVL | 26
1F12_H2L3, full-length human IgG1 (antibody, V domains shown) VH: EVQLLESGGGLVQPGGSLRLSCAASGFTFSNYAMSWVRQAPGKGLEWVSGISYDGGSTYYADSVKGRFTISRDNSKNTLYLQMNSLRAEDTAVYYCAKASRSCQRPACSYANGMDVWGQGTLVTVSS VL: QSVLTQPPSASGTPGQRVTISCTGSSSNIGNNYVTWYQQLPGTAPKLLIYENNHRPSGVPDRFSGSKSGTSASLAISGLQSEDEADYYCGSWDYSLSAYVFGGGTKLTVL | 24.5
1F12_H6L5, full-length human IgG1 (antibody, V domains shown) VH: EVQLLESGGGLVQPGGSLRLSCAASGFTFSNYAMSWVRQAPGKGLEWVSGISYSGGSTYYADSVKGRFTISRDNSKNTLYLQMNSLRAEDTAVYYCAKASRSCQRPACHYANGMDVWGQGTLVTVSS VL: QSVLTQPPSASGTPGQRVTISCTGSSSNIGNNYVTWYQQLPGTAPKLLIYYNNHRPSGVPDRFSGSKSGTSASLAISGLQSEDEADYYCGSWDYSLRAYVFGGGTKLTVL | 18.2
